Data taken from the supplement of paper PMC9112550, “Optimization of the antimicrobial peptide Bac7 by deep mutational scanning” (BMC Biology, 2022).

system: Escherichia coli TOP10; test: shrunken log2 fold change of peptide-encoding DNA abundance (4.5 h post-induction vs induction); higher = less antimicrobial activity (less host growth inhibition); details: time post-induction: 4.5 h; library: site-saturation at positions 5, 18, 19, 20
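Note: peptides expressed intracellularly from a pBAD plasmid library in pooled LB shake-flask culture, induced with 0.3% L-arabinose, DNA abundance read by NGS, three biological replicates, DESeq2 with apeglm shrinkage.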

Sequence	shrunken log2 fold change
RRIRMRPPRLPRPRPRPWAFPRP	-0.121
RRIRNRPPRLPRPRPRPMQRPRP	0.00752
RRIRYRPPRLPRPRPRPNREPRP	0.00551
RRIRNRPPRLPRPRPRPQHFPRP	-0.0338
RRIRKRPPRLPRPRPRPQWAPRP	-0.0368
RRIRKRPPRLPRPRPRPVCIPRP	0.0558
RRIRSRPPRLPRPRPRPGNLPRP	-0.0533
RRIRVRPPRLPRPRPRPAQVPRP	0.427
RRIRQRPPRLPRPRPRPEENPRP	0.00965
RRIRARPPRLPRPRPRPLIYPRP	0.0475
RRIRTRPPRLPRPRPRPDYFPRP	-0.153
RRIRNRPPRLPRPRPRPKCNPRP	-0.819
RRIRFRPPRLPRPRPRPTWGPRP	0.132
RRIRSRPPRLPRPRPRPDFGPRP	0.0573
RRIRCRPPRLPRPRPRPMCDPRP	0.128
RRIRNRPPRLPRPRPRPLFGPRP	0.0228
RRIRMRPPRLPRPRPRPLQKPRP	1.02
RRIRIRPPRLPRPRPRPLHRPRP	-0.307
RRIRQRPPRLPRPRPRPLTQPRP	0.0547
RRIRLRPPRLPRPRPRPSFRPRP	-0.358
RRIRARPPRLPRPRPRPHPMPRP	-0.026
RRIRPRPPRLPRPRPRPVVYPRP	-0.538
RRIRRRPPRLPRPRPRPVRRPRP	0.619
RRIRDRPPRLPRPRPRPDLRPRP	-0.0435
RRIRYRPPRLPRPRPRPVRTPRP	-0.137

Sequence	shrunken log2 fold change
RRIRVRPPRLPRPRPRPHAQPRP	-0.224
RRIRRRPPRLPRPRPRPWYPPRP	-0.206
RRIRYRPPRLPRPRPRPKTYPRP	-0.781
RRIRCRPPRLPRPRPRPGIRPRP	-0.107
RRIRTRPPRLPRPRPRPVGPPRP	-0.006
RRIRVRPPRLPRPRPRPFAAPRP	0.15
RRIRQRPPRLPRPRPRPFPPPRP	-0.0272
RRIRPRPPRLPRPRPRPSHHPRP	-0.529
RRIRSRPPRLPRPRPRPNRIPRP	-0.304
RRIRPRPPRLPRPRPRPIHVPRP	-0.351
RRIRHRPPRLPRPRPRPCYEPRP	-0.185
RRIRMRPPRLPRPRPRPTHEPRP	0.439
RRIRHRPPRLPRPRPRPRGFPRP	0.0657
RRIRKRPPRLPRPRPRPDPCPRP	0.312
RRIRMRPPRLPRPRPRPISPPRP	0.0263
RRIRSRPPRLPRPRPRPKPSPRP	0.263
RRIRFRPPRLPRPRPRPSAFPRP	-0.204
RRIRIRPPRLPRPRPRPYDDPRP	-0.0134
RRIRPRPPRLPRPRPRPQTEPRP	0.0275
RRIRTRPPRLPRPRPRPIAYPRP	0.0173
RRIRLRPPRLPRPRPRPDLNPRP	-1.09
RRIRYRPPRLPRPRPRPIEQPRP	-0.00931
RRIRRRPPRLPRPRPRPMRIPRP	0.0269
RRIRKRPPRLPRPRPRPCLPPRP	0.0253
RRIRGRPPRLPRPRPRPCILPRP	0.0804

Sequence	shrunken log2 fold change
RRIRRRPPRLPRPRPRPIIDPRP	-0.125
RRIRNRPPRLPRPRPRPIYAPRP	-0.71
RRIRMRPPRLPRPRPRPNRQPRP	0.108
RRIRQRPPRLPRPRPRPAEEPRP	0.0112
RRIRPRPPRLPRPRPRPPDKPRP	0.266
RRIRPRPPRLPRPRPRPKQIPRP	0.0957
RRIRTRPPRLPRPRPRPMQAPRP	-0.0247
RRIRSRPPRLPRPRPRPWYMPRP	-0.262
RRIRMRPPRLPRPRPRPVVNPRP	0.0747
RRIRFRPPRLPRPRPRPLFFPRP	-0.259
RRIRVRPPRLPRPRPRPDRWPRP	0.478
RRIRKRPPRLPRPRPRPSYYPRP	-0.983
RRIRVRPPRLPRPRPRPSSTPRP	-0.398
RRIRNRPPRLPRPRPRPIVVPRP	0.0207
RRIRERPPRLPRPRPRPAAWPRP	0.443
RRIRLRPPRLPRPRPRPVRYPRP	-0.162
RRIRRRPPRLPRPRPRPGCTPRP	0.183
RRIRERPPRLPRPRPRPRINPRP	-0.427
RRIRFRPPRLPRPRPRPMQMPRP	0.142
RRIRTRPPRLPRPRPRPVFYPRP	-0.25
RRIRKRPPRLPRPRPRPDCEPRP	1.96
RRIRARPPRLPRPRPRPVKGPRP	-0.00146
RRIRVRPPRLPRPRPRPYENPRP	-0.293
RRIRFRPPRLPRPRPRPCEDPRP	-0.13
RRIRCRPPRLPRPRPRPYGCPRP	-0.00123
